The source of these data is paper PMC6375729.

Assay [1] has as its target BRD4 first bromodomain (BD1), N44-E168 (human) (UniProt O60885). The experiment in a line: ITC; peptide in the syringe titrated into protein in the cell; 15 °C; 50 mM HEPES pH 7.5, 150 mM NaCl; single binding site model. (ITC needs no label: the signal is the heat of the interaction.)
Assay [2] concerns the target BRD4 second bromodomain (BD2), D334-E460 (human) (UniProt O60885). The description is as above.
In assay [3] the target is BRD4 first bromodomain (BRD4/BD1) (human) (UniProt O60885). Put plainly: ITC; peptide titrated into BRD4/BD1 or BRD4/BD2 in the cell; 50 mM HEPES pH 7.5 (at 25°C), 150 mM NaCl, 15°C, stirring at 1,000 rpm; single-site binding model.
Assay [4] concerns the target BRD4 second bromodomain (BRD4/BD2) (human) (UniProt O60885). The assay is described as above.
Assay [5] addresses BRD4 first bromodomain (BD1), N44-E168 (human) (UniProt O60885). Put plainly: ITC; peptide titrated into protein; 100 mM Na3PO4 pH 8.0, 150 mM NaCl; single binding site model.
Assay [6] addresses BRD4 second bromodomain (BD2), D334-E460 (human) (UniProt O60885). The assay is described as above.
In assay [7] the target is BRD4 first bromodomain (BD1), N44-E168 (human) (UniProt O60885). The experiment in a line: ITC; salt series: 15 °C, 300 mM NaCl; the sheet's heads give [Protein] 1055 uM and [Peptide] 45 uM.
Assay [8] shares this target. Put plainly: ITC; salt series: 15 °C, 450 mM NaCl; the sheet's heads give [Protein] 1085 uM and [Peptide] 45 uM.
Assay [9] has the same target. Put plainly: ITC; salt series: 15 °C, 1000 mM NaCl; the sheet's heads give [Protein] 1042 uM and [Peptide] 42 uM.
Assay [10] has the same target. Put plainly: ITC; temperature series: 5 °C, 150 mM NaCl; the sheet's heads give [Protein] about […] and [Peptide] about 45 uM.
The target is the same in assay [11]. The experiment in a line: ITC; temperature series: 20 °C, 150 mM NaCl; [Protein] about 1050-1063 uM and [Peptide] 42-46 uM.
For assay [12] the target is unchanged. The experiment in a line: ITC; temperature series: 25 °C, 150 mM NaCl; [Protein] about 1050-1063 uM and [Peptide] 42-46 uM.
The target is the same in assay [13]. The experiment in a line: ITC; temperature series: 30 °C, 150 mM NaCl; [Protein] about 1050-1063 uM and [Peptide] 42-46 uM.
For assay [14] the target is unchanged. The experiment in a line: ITC; temperature and salt series: 15 °C, 150 mM NaCl; the sheet's heads give [Protein] about 1060 uM and [Peptide] 42-51 uM.
Assay [15] has as its target BRD4 second bromodomain (BRD4/BD2) (human) (UniProt O60885). Put plainly: ITC; peptide titrated into BRD4/BD1 or BRD4/BD2 in the cell; 100 mM Na3PO4 pH 8.0, 150 mM NaCl, 15°C, stirring at 1,000 rpm; single-site binding model.
Assay [16] addresses BRD4 BD1, 44-168 (UniProt O60885). The experiment in a line: isothermal titration calorimetry. To be noted: reference: H3 K9ac/K14ac peptide.
In assay [17] the target is BRD4 BD2, 334-460 (UniProt O60885). The experiment in a line: isothermal titration calorimetry. The following applies: reference: H3 K9ac/K14ac peptide.
The target in assay [18] is BRD4 first bromodomain (BRD4/BD1), hexa-His tag cleaved (human) (UniProt O60885). Put plainly: ITC; peptide (1226 - 1433 μM) in the syringe, protein (36 - 59 μM) in the cell, 15°C, 50 mM HEPES pH 7.5, 150 mM NaCl, single binding site model.

As usually defined, the Kd is the free concentration of one partner at which half of the binding sites on the other are occupied at equilibrium, for simple one-to-one binding. As usually defined, the stoichiometry N is a count of units in the complex or per binding partner. For GATA1 K312ac/K315ac peptide, the Kd in [1] came to 24.6 µM; in [2] it was 62.9 µM; in assay [3], 24.6 µM; in [4] it was 62.9 µM. Further, the stoichiometry N is 0.94 in [1] and 0.96 in [2].

Regarding ATRX K1030ac/K1033ac peptide, the Kd in assay [1] was found to be 87.7 µM; in assay [2], 25.3 µM; in assay [3], 87.7 µM; in [4], 25.3 µM. For the same substance, the stoichiometry N was 0.99 in assay [1] and 0.49 in assay [2].

Take SRPK1 K585ac/K588ac peptide: the stoichiometry N in assay [5] stood at 0.92; in assay [6], 1.11; in assay [7] it was 1.02; in assay [8], 1.01; in assay [9] it was 0.96; in [10] it was 1.01. Besides, the stoichiometry N in assay [11] is 1.14; in [12], 1.12; in assay [13] it was 1.12; in assay [14], 1.16. Also, the Kd in [6] stood at 29.7 µM; in assay [7] it was 48.5 µM; in assay [8] it was 58.5 µM; in [9] it was 71.4 µM; in assay [10], 49 µM; in assay [11], 48.8 µM. Moreover, the dissociation constant Kd in assay [12] was found to be 40.2 µM; in [13], 46.3 µM; in [14], 45.7 µM; in assay [15], 29.7 µM.

Consider “histone H3 (from UniProt P68431) H3 K9ac/pS10/K14ac peptide”, for which the results for the “binding against the reference” value in assay [16] (sites S10) and in [17] (sites S10) were “same” and “lost”, respectively.

The substance SRPK1 (K585acY) peptide used for ITC showed a Kd in assay [18] of 9.9 µM.

For E2F1 K117ac/K120ac peptide, the Kd was determined as 45.8 µM in assay [1], 34.8 µM in assay [2], 45.8 µM in [3] and 34.8 µM in assay [4]. The results for the stoichiometry N in [1] and in assay [2] were 0.9 and 0.56, respectively.

As for “histone H3 (from UniProt P68431) H3 K9ac/pT11/K14ac peptide”, the “binding against the reference” value in [16] (sites T11) and in assay [17] (sites T11) was “lost” in each case.

As to SIRT7 K272ac/K275ac peptide, in assay [1], the Kd came out at 15.8 µM and the stoichiometry N came to 0.52. In [2], this substance gave a Kd of 44.4 µM and a stoichiometry N of 0.87.

Turning to TOP2A K1201ac/K1204ac peptide, the Kd in assay [1] was found to be 19.5 µM; in assay [2], 63.3 µM; in [3], 19.5 µM; in assay [4] it was 63.3 µM. Moreover, the stoichiometry N in assay [1] came out at 0.85; in assay [2], 0.51.
